Changes are numbered by the printed parent chain. Where two headings read alike, the source gives them in different places.
T1: human TREM2 Fc fusion (entire TREM2 ECD; only one Fc arm fused to TREM2) (human, UniProt Q9NZC2 19-174)
T1 construct: also called huTREM2-Fc; recombinant hTREM2
T1 sequence: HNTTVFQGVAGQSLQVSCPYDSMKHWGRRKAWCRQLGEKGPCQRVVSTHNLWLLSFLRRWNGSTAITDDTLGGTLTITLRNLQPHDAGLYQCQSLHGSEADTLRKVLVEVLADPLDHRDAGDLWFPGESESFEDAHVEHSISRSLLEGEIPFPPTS

T2: human TREM2 expressed on cells (human, UniProt Q9NZC2 19-230)
T2 construct: BW5147.G.1.4 cells stably expressing human TREM2 together with Dap12, or endogenous TREM2 of primary human myeloid cells; also called huT2 BW; hTREM2 expressing cell line
T2 sequence: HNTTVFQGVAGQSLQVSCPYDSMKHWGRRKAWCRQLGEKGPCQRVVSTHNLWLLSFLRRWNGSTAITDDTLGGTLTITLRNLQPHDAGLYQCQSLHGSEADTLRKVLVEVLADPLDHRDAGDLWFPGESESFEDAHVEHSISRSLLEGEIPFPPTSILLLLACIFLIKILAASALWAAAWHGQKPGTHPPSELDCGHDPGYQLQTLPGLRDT

T3: cynomolgus monkey TREM2 Fc fusion (entire TREM2 ECD; only one Fc arm fused to TREM2) (cynomolgus monkey, UniProt Q9NZC2 19-174 (human entry))
T3 construct: also called cyno TREM2-Fc
T3 chain: T1 sequence with A10E, W60R, L89F, F125V

B1: AL2p huIgG1 (human mouse chimeric parental antibody) (antibody, V domains shown)
VH: QVQLQQSGPELVKPGASLKISCKASGYAFSSSWMNWVKQRPGKGLEWIGRIYPGDGDTNYNGEFRVRATLTADTSSTTAYMQLSSLTSEDSAVYFCARLLRNQPGESYAMDYWGQGASVTVSS
VL: DVVMTQTPLSLPVSLGDQASISCRSSQSLVHSNGYTYLHWYLQKPGQSPKLLIYKVSNRFSGVPDRFSGSGSGTDFTLKISRVEADDLGVYFCSQSTRVPYTFGGGTKLEIK
notes: Mouse variable region with human IgG1 Fc region; Fab and IgG formats under one id; also called chimeric parental AL2p antibody as huIgG1
B2: AL2p-8 (antibody, V domains shown)
VH: QVQLVQSGAEVKKPGSSVKVSCKASGYAFSLSWMNWVRQAPGQGLEWMGRIYPGDGDTNYARKFQGRVTITADESTSTAYMELSSLRSEDTAVYYCARLLRNQPGSSYAMDYWGQGTLVTVSS
VL: GVVMTQTPLSLSVTPGQPASISCRSSQSLIHSNGYTYLHWYLQKPGQSPQLLIYKVSNRRSGVPDRFSGSGSGTDFTLKISRVEAEDVGVYYCSQSTRVPYTFGQGTKLEIK
notes: Fab and IgG formats under one id
B3: AL2p-9 (antibody, V domains shown)
VH: B2 VH with L31R, R62Q, S106A
VL: B2 VL with S25T, I30V, R60V
notes: as for B2
B4: AL2p-15 (antibody, V domains shown)
VH: B2 VH with L31S, S32H, R62Q, S106E
VL: B2 VL with Q27S, I30V, R60K
notes: as for B2
B5: AL2p-16 (antibody, V domains shown)
VH: B2 VH with L31S, S32H, R62Q, Q65R, S106A
VL: B2 VL with S25T, I30V, R60V
notes: as for B2
B6: AL2p-26 (antibody, V domains shown)
VH: B2 VH with L31S, S32H, D55G, R62Q, F64R, S106E
VL: B2 VL
notes: as for B2
B7: AL2p-35 (antibody, V domains shown)
VH: B2 VH with S16A, S30W, L31S, G44R, M48I, R62Q, E74T, T76A, S106E, M110H
VL: DVVMTQSPDSLAVSLGERATINCRSSQSLVHSNGYTYLHWYQQKPGQSPKLLIYKVSNRFSGVPDRFSGSGSGTDFTLTISSLQAEDVAVYYCSQSTRVPYTFGGGTKVEIK
notes: as for B2
B8: AL2p-36 (antibody, V domains shown)
VH: B2 VH with S16A, L31S, G44R, M48I, E74T, T76A, S106A
VL: B7 VL
notes: as for B2
B9: AL2p-47 huIgG1 (antibody, V domains shown)
VH: B2 VH with L31S, S32D, D55E, Q65H, Q103K, S106E
VL: DVVMTQTPLSLSVTPGQPASISCRTSQSLVHSNAYTYLHWYLQKPGQSPQLLIYKVSNRVSGVPDRFSGSGSGTDFTLKISRVEAEDVGVYYCSQSTRVPYTFGQGTKLEIKR
B10: AL2p-61 huIgG1 (antibody, V domains shown)
VH: B2 VH with L31S, S32Q, D55E, S106E
VL: B9 VL with D1G, T25S, A34Q, V60R

Columns and labels:
[1] = target: T1, human TREM2 Fc fusion (entire TREM2 …); test: BLI, Fab, monovalent
Procedure, shortened: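 TREM2 Fc fusion antigen was loaded onto AHQ biosensors, with a 60 s baseline in assay buffer. The sensors were then exposed to 100 nM antibody Fab for monovalent binding. Data were fitted to a 1:1 model, and the assay ran at 25 °C.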

[2] = target: T2, human TREM2 expressed on cells; test: FACS, hTREM2 BW cells
Procedure, shortened: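 BW5147.G.1.4 cells stably co-expressing human TREM2 and Dap12, 1×10⁵ cells/well, incubated with anti-TREM2 antibody 1 h on ice in PBS/2% FBS. Anti-human PE secondary 30 min on ice; flow cytometry, binding as mean fluorescence intensity.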

[3] = target: T2, human TREM2 expressed on cells; test: FACS, hTREM2 BW cells; remark: listed apart in the source
[4] = target: T4, human TREM2/DAP12 fusion protein (human, UniProt O43914 41-113, limits assumed); test: cell-based or functional assay
[5] = target: T4, human TREM2/DAP12 fusion protein; test: cell-based or functional assay; remark: listed apart in the source
[6] = target: T2, human TREM2 expressed on cells; test: cell-based or functional assay
[7] = target: T1, human TREM2 Fc fusion (entire TREM2 …); test: BLI, IgG, avid
Procedure, shortened: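 Avid format: AHQ-loaded IgGs exposed to 100 nM human or cyno TREM2-Fc antigen, 3 min association, 3 min dissociation in buffer. Monovalent format: human TREM2-Fc loaded on AHQ sensors, exposed to 100 nM Fab. Kinetics fit to 1:1 model, run at 25° C.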

[8] = target: T2, human TREM2 expressed on cells; test: FACS, human DCs
Description: To examine cell binding of affinity matured anti-TREM2 antibodies, both primary human monocyte derived dendritic cells and recombinant, human TREM2 expressing cells were utilized. For the latter, BW5147.G.1.4 (ATCC® TIB48™) and HEK293T cells stably expressing human TREM2 together with Dap12 using viral infection were established. For primary human monocyte derived dendritic cells, human monocytes were isolated from whole blood using RosetteSep Human monocyte enrichment cocktail (Stemcell technologies) and Ficoll centrifugation per manufacturer protocols. After lysing red blood cells with ACK lysing buffer, monocytes were resuspended in complete media (RPMI, 10% FBS, Pen/Strep, L-glutamine, HEPES, non-essential amino acid, Sodium pyruvate) with 100 ng/ml human GM-CSF (hu-GMCSF) and, human IL-4 (hu-IL-4) to differentiate dendritic cells for 6 days.
Cells were harvested by trypsinization (Hek293T) or scraping (BW and dendritic cells), washed in PBS, counted and plated on 96-well U bottom plates at […] cells/well. The plates were spun at 1,400 rpm for 3 minutes and primary TREM2 or control antibodies were added in FACS buffer (PBS+2% FBS) and incubated on ice for one hour. Cells were subsequently centrifuged as before and washed thrice with FACS buffer. Cells were then incubated with anti-human PE conjugated secondary antibody (BD Biosciences) in FACS buffer for 30 minutes on ice. Cells were again washed thrice with FACS buffer and analyzed on a BD FACS Canto or an Intellicyt Flow Cytometer. Binding was measured as mean fluorescence intensity in the APC channel.

[9] = target: T1, human TREM2 Fc fusion (entire TREM2 …); test: BLI, Fab, monovalent; remark: listed apart in the source
[10] = target: T3, cynomolgus monkey TREM2 Fc fusion …; test: BLI, Fab, monovalent
[11] = target: T2, human TREM2 expressed on cells; test: FACS, hTREM2 BW cells; remark: listed apart in the source
Procedure, shortened: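 Cells were BW5147.G.1.4 stably expressing human TREM2 with Dap12, or human monocyte-derived dendritic cells differentiated 6 days with GM-CSF and IL-4. Antibodies bound 1 h on ice in PBS+2% FBS, then PE anti-human secondary 30 min on ice; flow cytometry read-out as mean fluorescence intensity.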

[12] = target: T2, human TREM2 expressed on cells; test: cell-based or functional assay; remark: listed apart in the source
[13] = target: T4, human TREM2/DAP12 fusion protein; test: cell-based or functional assay; remark: listed apart in the source

T4 sequence (O43914 other isoform, or with tags, fused parts or gaps limits assumed): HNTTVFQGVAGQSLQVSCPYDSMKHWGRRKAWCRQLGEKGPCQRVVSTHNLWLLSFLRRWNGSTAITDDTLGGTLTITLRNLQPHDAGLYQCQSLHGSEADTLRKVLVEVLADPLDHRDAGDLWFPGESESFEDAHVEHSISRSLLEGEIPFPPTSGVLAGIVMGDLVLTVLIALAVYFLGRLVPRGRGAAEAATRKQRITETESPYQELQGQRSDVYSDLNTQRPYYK

Row | Binder | Bmax (MFI) [3] [MFI] | Kd [3] [nM] | Plate bound IgG, fold over unstimulated control (25 nM IgG) [5] [fold] | Soluble IgG, EC50 [5] [nM] | Soluble IgG, fold over control IgG (17 nM IgG) [5] [fold] | Kd [7] [nM] | MFI [8] [MFI] | Kd [9] [nM] | Kd [10] [nM] | Kd [11] [nM] | Survival huDCs plate bound IgG, AUC [12] [AUC] | Luciferase activation soluble 10 nM IgG, FOC [13] [FOC] | Luciferase activation plate bound 33 nM IgG, FOC [13] [FOC] | other results
1 | B1 | 199000 | 1.32 | 1.29 | 14.6 | 4.51 |  |  |  |  |  |  |  |  | Kd [1]: 102 nM; cell binding (FOB) [2]: 79 FOB; Soluble luciferase activation at 10 µg/ml Fold over control [4]: 3.55 fold over control; EC50 viability, dendritic cells D558 [6]: 95.7 nM; EC50 viability, dendritic cells D559 [6]: 41.2 nM; EC50 viability, dendritic cells D560 [6]: 55.1 nM; EC50 viability, macrophages D558 [6]: 12.3 nM; EC50 viability, macrophages D559 [6]: 146 nM; EC50 viability, macrophages D560 [6]: 129 nM
2 | B2 |  |  |  |  |  | 0.3 | 310 | 4.01 | 3.1 | 1.2 | 1.09e+06 | 2.78 |  | 
3 | B3 |  |  |  |  |  | 0.349 | 322 | 6.44 | 5.63 | 1.1 | 976000 | 2.62 | 15.2 | 
4 | B4 |  |  |  |  |  | 0.538 | 262 | 8.85 | 8.76 | 2.2 | 488000 | 1.8 | 7.54 | 
5 | B5 |  |  |  |  |  | 0.222 | 327 | 1.83 | 1.36 | 1.2 | 880000 | 2.6 | 16.9 | 
6 | B6 |  |  |  |  |  | 0.201 | 296 | 3.15 | 2.69 | 1.1 | 1.11e+06 | 2.59 | 25.9 | 
7 | B7 |  |  |  |  |  | 1.85 | 130 | 28.4 | 24.6 | 3.6 | 453000 | 2.05 | 5.15 | 
8 | B8 |  |  |  |  |  | 0.495 | 240 | 12.1 | 7.38 | 1.7 | 1.14e+06 | 2.64 | 22.7 | 
9 | B9 | 226000 | 1.2 | 3.94 | 6.5 | 8.77 |  |  |  |  |  |  |  |  | EC50 viability, dendritic cells D558 [6]: 1.02 nM; EC50 viability, dendritic cells D559 [6]: 1.13 nM; EC50 viability, dendritic cells D560 [6]: 0.672 nM; EC50 viability, macrophages D558 [6]: 0.013 nM; EC50 viability, macrophages D559 [6]: 1.56 nM; EC50 viability, macrophages D560 [6]: 1.25 nM
10 | B10 | 211000 | 0.42 | 8.97 | 5.24 | 10.8 |  |  |  |  |  |  |  |  | 

Reference: patent US20200317776A1 (published 2020)
